The results in this text go back to US20130011380A1 (published 2013).

What all share (experiment): anti-Flag IP-MS, mES nuclear extract
In one assay the target is Lmo7 (mouse, UniProt E9PYF4 24-1649). The text has this: (§1) Mass spectrometry was used to identify the potential interactors of AID and understand the functional molecular players that orchestrate mammalian DNA demethylation. The following AID constructs were used: 1) human AID containing two tandem Flag tags at the N-terminus of the protein, cloned into the pHAGE-STEMCCA lentiviral vector, and 2) human AID containing two tandem Flag tags at the C-terminus of the protein, cloned into the pHAGE-STEMCCA lentiviral vector. Virus containing these constructs was subsequently used to infect mouse embryonic stem cells (CGR8), and stable cell lines overexpressing Flag-human AID were selected. As a control, the lentiviral vector containing only the 2× Flag tag was used.
Chain of Lmo7 (E9PYF4 entry or part of it): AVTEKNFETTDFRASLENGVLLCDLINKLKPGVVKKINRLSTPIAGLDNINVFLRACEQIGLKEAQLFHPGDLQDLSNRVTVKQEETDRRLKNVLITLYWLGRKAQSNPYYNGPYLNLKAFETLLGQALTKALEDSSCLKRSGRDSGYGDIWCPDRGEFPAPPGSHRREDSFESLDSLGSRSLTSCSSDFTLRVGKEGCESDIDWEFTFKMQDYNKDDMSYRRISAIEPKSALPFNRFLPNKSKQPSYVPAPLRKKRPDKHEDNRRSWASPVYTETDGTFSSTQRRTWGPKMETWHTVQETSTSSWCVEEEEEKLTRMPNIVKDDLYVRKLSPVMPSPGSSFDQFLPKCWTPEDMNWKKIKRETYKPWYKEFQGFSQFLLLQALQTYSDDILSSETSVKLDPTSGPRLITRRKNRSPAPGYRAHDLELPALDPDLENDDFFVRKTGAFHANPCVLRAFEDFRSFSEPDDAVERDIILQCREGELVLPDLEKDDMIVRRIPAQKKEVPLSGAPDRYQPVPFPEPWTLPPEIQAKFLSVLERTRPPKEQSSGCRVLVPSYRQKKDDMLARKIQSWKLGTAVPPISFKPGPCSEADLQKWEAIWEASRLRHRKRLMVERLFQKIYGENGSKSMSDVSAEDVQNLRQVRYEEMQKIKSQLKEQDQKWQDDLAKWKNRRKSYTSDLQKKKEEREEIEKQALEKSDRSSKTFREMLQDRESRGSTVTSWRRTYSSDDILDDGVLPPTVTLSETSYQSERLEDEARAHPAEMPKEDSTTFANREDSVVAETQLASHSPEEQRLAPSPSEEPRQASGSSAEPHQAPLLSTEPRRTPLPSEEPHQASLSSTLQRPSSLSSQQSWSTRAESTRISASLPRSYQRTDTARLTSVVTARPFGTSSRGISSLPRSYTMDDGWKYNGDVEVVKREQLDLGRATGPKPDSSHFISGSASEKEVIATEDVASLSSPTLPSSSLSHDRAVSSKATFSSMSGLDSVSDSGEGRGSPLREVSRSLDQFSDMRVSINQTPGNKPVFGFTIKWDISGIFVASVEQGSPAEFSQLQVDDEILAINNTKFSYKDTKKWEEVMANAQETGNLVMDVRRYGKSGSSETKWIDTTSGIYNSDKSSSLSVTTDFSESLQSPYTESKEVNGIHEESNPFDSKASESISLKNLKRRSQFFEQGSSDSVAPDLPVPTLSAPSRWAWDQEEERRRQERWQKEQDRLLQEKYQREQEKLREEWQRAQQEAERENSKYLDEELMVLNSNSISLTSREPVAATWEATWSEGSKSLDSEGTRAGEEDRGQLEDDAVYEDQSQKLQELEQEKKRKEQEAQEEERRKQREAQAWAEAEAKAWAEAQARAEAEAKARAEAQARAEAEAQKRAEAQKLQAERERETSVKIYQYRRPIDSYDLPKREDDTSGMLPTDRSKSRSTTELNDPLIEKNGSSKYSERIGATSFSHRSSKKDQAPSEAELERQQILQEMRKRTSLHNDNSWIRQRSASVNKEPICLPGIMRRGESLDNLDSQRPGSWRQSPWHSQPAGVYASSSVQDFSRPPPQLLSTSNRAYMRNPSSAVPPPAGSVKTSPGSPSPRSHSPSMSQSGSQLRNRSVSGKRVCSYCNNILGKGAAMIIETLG
(§2) The stable ES cell lines expressing AID and Control 2× Flag were fractionated into cytoplasmic and nuclear extracts for immunoprecipitating the AID protein using an antibody against the Flag tag. The resulting complex was subjected to mass spectrometric analyses.
(§3) TABLE 5 After immunoprecipitation, AID and the interacting proteins were identified by mass spectrometry (MS). All proteins were subjected to trypsin digestion to break them down into smaller peptides, and run through a mass spectrometer. Column C indicates the number of unique peptides of a particular protein detected by MS analysis, to be associated with the AID-Flag protein. Column D represents the number of peptides associated with the Flag only protein. The higher the number of unique peptides (>3) that are associated with AID, but not with the Flag protein, the stronger the indication of the specificity of the interaction. Columns E and F represent the associated spectra i.e. the frequency of these peptides detected in association with the AID protein as a measure of the abundance of the associated protein.

The target of the next assay is Tmpo (mouse).
Source text: as §1, §2, §3

In the next assay the target is T1, Tip2 (mouse).
T1 construct: Gene name as printed; possibly a misprint, not resolved
T1 sequence (Q9Z0U1 whole entry): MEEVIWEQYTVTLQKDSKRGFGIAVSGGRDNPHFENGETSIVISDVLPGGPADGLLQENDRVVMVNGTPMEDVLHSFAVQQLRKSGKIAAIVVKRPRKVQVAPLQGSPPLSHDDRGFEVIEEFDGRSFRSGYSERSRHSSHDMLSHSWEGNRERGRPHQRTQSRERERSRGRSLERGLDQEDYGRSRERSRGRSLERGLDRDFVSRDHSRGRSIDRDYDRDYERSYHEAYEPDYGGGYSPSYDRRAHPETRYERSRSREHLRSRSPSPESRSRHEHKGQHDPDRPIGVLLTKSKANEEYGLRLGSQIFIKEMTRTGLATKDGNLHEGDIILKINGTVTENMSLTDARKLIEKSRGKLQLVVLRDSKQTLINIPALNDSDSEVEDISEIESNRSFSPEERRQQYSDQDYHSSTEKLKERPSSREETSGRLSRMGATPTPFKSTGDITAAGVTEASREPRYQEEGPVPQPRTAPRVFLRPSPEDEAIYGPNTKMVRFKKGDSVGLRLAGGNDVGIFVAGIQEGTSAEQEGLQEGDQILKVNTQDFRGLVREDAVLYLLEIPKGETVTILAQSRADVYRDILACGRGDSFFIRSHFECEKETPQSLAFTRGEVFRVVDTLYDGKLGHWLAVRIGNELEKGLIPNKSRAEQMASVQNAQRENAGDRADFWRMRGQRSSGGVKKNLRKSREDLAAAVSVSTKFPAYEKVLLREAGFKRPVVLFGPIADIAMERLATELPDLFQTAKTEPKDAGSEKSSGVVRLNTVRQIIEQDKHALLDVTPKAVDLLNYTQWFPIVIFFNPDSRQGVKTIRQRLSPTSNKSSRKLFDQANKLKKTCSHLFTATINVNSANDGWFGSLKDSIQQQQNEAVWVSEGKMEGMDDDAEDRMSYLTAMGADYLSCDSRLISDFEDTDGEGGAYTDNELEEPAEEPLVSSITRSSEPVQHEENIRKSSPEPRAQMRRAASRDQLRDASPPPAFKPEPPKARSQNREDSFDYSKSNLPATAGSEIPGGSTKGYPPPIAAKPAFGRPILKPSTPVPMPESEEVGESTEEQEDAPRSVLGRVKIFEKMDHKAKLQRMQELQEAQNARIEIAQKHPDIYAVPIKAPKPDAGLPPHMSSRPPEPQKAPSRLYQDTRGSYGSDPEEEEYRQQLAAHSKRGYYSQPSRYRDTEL
Source text: as §1, §2, §3

B1: human AID containing two tandem Flag tags (Flag-human AID) (enzyme, UniProt Q9GZX7 1-198, looked up)
chain: MDSLLMNRRKFLYQFKNVRWAKGRRETYLCYVVKRRDSATSFSLDFGYLRNKNGCHVELLFLRYISDWDLDPGRCYRVTWFTSWSPCYDCARHVADFLRGNPNLSLRIFTARLYFCEDRKAEPEGLRRLHRAGVQIAIMTFKDYFYCWNTFVENHERTFKAWEGLHENSVRLSRQLRRILLPLYEVDDLRDAFRTLGL
notes: Stably overexpressed in mouse ES cells (CGR8) from the pHAGE-STEMCCA lentiviral vector; Two constructs (N-terminal or C-terminal 2x Flag) were made; also called AID-Flag protein; not shown: two tandem Flag tags
Take B1: the Nucleus peptide stood at 15 peptides with Lmo7, 4 peptides with Tmpo and 16 peptides with Tip2. For the same molecule, the Nucleus spectra with Lmo7 was determined as 31 spectra; with Tmpo it was 16 spectra; with Tip2, 36 spectra.
